Test [1] deals with HLA-A*0301 (human). The test can be described thus: competition with 125I-labelled standard peptide on purified HLA, gel filtration. (In general: SEC sorts molecules by how far they enter the pores of the column.)
In test [2] the target is HLA-A*1101 (human). The test is described as above.
The target in test [3] is HLA-A*3101 (human). The test is described as above.
Test [4] has as its target HLA-A*6801 (human). Described as above. To be noted: remark: other sources report otherwise.
The target of test [5] is HLA-A*3301 (human). The test is described as above.
For test [6], the target named is HLA-B*5301 (human). The test can be described thus: competition with 125I-labelled standard peptide for purified HLA, gel filtration.
In test [7] the target is HLA-A*0301 (human).
Test [8] has as its target HLA-A*0201 (Human). The test can be described thus: competition with 125I-labelled standard peptide for purified HLA, gel filtration.
The target of test [9] is HLA-B*5401 (human). Described as above.
Test [10] concerns the target HLA-A*0301 (human). This is another data set of the same source.
For test [11], the target named is HLA-A*1101 (human). Nature of the test: inhibition of 125I-labelled standard peptide binding to purified HLA.
Test [12] addresses HLA-A*3101 (human). Described as above.
Test [13] deals with HLA-A*0201 (Human). Nature of the test: competition with 125I-labeled probe peptide for purified HLA, gel filtration. The settings on record: remark: other sources report otherwise.
For test [14], the target named is HLA-A*0301 (human). The test can be described thus: competition with 125I-labelled probe peptide for purified HLA, gel filtration.
Test [15] addresses HLA-A*3301 (human). Nature of the test: inhibition of 125I-labelled standard peptide binding to purified HLA.
Test [16] deals with HLA-B*0702 (human). Nature of the test: competition with 125I-labelled standard peptide for purified HLA, gel filtration.
Test [17] has as its target HLA-B*0702 (human).
The target of test [18] is HLA-B*5401 (human). Nature of the test: competition with 125I-labelled probe peptide for purified HLA, gel filtration. The settings on record: remark: other sources report otherwise.
The mark [19] stands for this setting: remark: other sources report otherwise.

Like-named read-outs stand apart in the source and are kept apart here.

B1: HBV X 65 8-mer peptide SAGPCALR (SEQ ID NO: 651) (peptide)
peptide: SAGPCALR
modifications: not checked
B1: the binding affinity ratio (IC50 of standard peptide / IC50 of test peptide) in [1] (setting [19]) was -0.0002; in test [2] (setting [19]) it was 0.002; in test [3] (setting [19]), 0.0029; in test [4], 0.036.

B2: HBV POL 716 11-mer peptide … (SEQ ID NO: 661) (peptide)
peptide: TAELLAACFAR
modifications: not checked
For B2, the binding affinity ratio (IC50 of standard peptide / IC50 of test peptide) stood at 0.0006 in test [1] (setting [19]); 0.0023 in test [2] (setting [19]); 0.0066 in test [3] (setting [19]); 0.16 in test [5] (setting [19]); 0.059 in [4].

B3: HBV NUC 129 peptide … (peptide)
peptide: PPAYRPPNAPI
modifications: not checked
Turning to B3, the binding affinity ratio (IC50 of standard peptide / IC50 of test peptide) in test [6] is -0.0003.

B4: HBV POL 520 8-mer peptide SAICSVVR (SEQ ID NO: 652) (peptide)
peptide: SAICSVVR
modifications: not checked
As to B4, the binding affinity ratio (IC50 of standard peptide / IC50 of test peptide) in test [2] (setting [19]) came out at 0.0071; in test [3] (setting [19]) it was 0.028; in test [5] (setting [19]), 0.0081; in [4], 0.069.

B5: WLQFRNSK (HBV POL 314) (peptide)
peptide: WLQFRNSK
modifications: not checked
Take B5: the binding affinity ratio (IC50 of standard peptide / IC50 of test peptide) in test [7] is -0.0002.

B6: HBV ENV 348 peptide … (peptide)
peptide: GLSPTVWLSVI
modifications: not checked
Take B6: the binding affinity ratio (IC50 of standard peptide / IC50 of test peptide) in [8] was 0.0036.

B7: HBV NUC 128 peptide … (peptide)
peptide: TPPAYRPPNA
modifications: not checked
For the molecule B7, the binding affinity ratio (IC50 of standard peptide / IC50 of test peptide) in [9] is 0.01.

B8: HBV POL 519 … (peptide)
peptide: TSAICSVVR
modifications: not checked
As for B8, the binding affinity ratio (IC50 of standard peptide / IC50 of test peptide) in [10] (setting [19]) amounted to 0.0005.

B9: YSLNFMGY (HBV POL 580) (peptide)
peptide: YSLNFMGY
modifications: not checked
B9: the binding affinity ratio (IC50 of standard peptide / IC50 of test peptide) in test [7] is -0.0002.

B10: HBV POL 2 peptide … (peptide)
peptide: PLSYQHFRK
modifications: not checked
In the case of B10, the binding affinity ratio (IC50 of standard peptide / IC50 of test peptide) in test [11] came out at 0.0031; in [12], 0.0006.

B11: HBV POL 524 peptide 1069.073 (…) (peptide)
peptide: FLLAQFTSA
modifications: not checked
B11 yielded an IC50 in [13] of 6 nM.

B12: HBV POL 716 … (peptide)
peptide: TAELLAACFAR
modifications: not checked
With B12, the binding affinity ratio (IC50 of standard peptide / IC50 of test peptide) in test [10] (setting [19]) was found to be 0.0006.

B13: HBV ENV 348 peptide GLSPTVWL (peptide)
peptide: GLSPTVWL
modifications: not checked
As for B13, the binding affinity ratio (IC50 of standard peptide / IC50 of test peptide) in test [8] was found to be 0.0036.

B14: HBV POL 569 peptide … (peptide)
peptide: HLNPNKTKR
modifications: not checked
Regarding B14, the binding affinity ratio (IC50 of standard peptide / IC50 of test peptide) in test [14] was 0.0025.

B15: HBV NUC 30 peptide … (peptide)
peptide: LLDTASALYR
modifications: not checked
For the molecule B15, the binding affinity ratio (IC50 of standard peptide / IC50 of test peptide) in [14] came to 0.005.

B16: HBV POL 98 peptide PLTVNEKR (peptide)
peptide: PLTVNEKR
modifications: not checked
B16: the binding affinity ratio (IC50 of standard peptide / IC50 of test peptide) in test [11] is -0.0002; in test [12], -0.0009; in [15], -0.0009.

B17: HBV NUC 123 peptide … (peptide)
peptide: GVWIRTPPA
modifications: not checked
B17: the binding affinity ratio (IC50 of standard peptide / IC50 of test peptide) in test [8] is 0.003.

B18: HBV POL 771 11-mer peptide … (SEQ ID NO: 654) (peptide)
peptide: SALNPADDPSR
modifications: not checked
In the case of B18, the binding affinity ratio (IC50 of standard peptide / IC50 of test peptide) in test [1] is -0.0004; in test [2] it was -0.0003; in test [3] it was -0.0012; in [5] it was -0.0023.

B19: HBV NUC 171 9-mer peptide … (SEQ ID NO: 662) (peptide)
peptide: TLPETTVVR
modifications: not checked
Consider B19, for which the binding affinity ratio (IC50 of standard peptide / IC50 of test peptide) in test [3] (setting [19]) is 0.0009; in test [4] it was 0.018.

B20: WIRTPPAY (HBV NUC 125) (peptide)
peptide: WIRTPPAY
modifications: not checked
In the case of B20, the binding affinity ratio (IC50 of standard peptide / IC50 of test peptide) in test [7] is -0.0002.

B21: HBV POL 20 peptide PLEEELPR (peptide)
peptide: PLEEELPR
modifications: not checked
As to B21, the binding affinity ratio (IC50 of standard peptide / IC50 of test peptide) in test [11] was -0.0002; in test [12], -0.0009; in test [15], -0.0009.

B22: HBV NUC 44 peptide […] (peptide)
peptide: SPEHCSPHHTA
modifications: not checked
Regarding B22, the binding affinity ratio (IC50 of standard peptide / IC50 of test peptide) is -0.0002 in [16], -0.0003 in test [6] and 0.0011 in test [9].

B23: … (HBV NUC 26) (peptide)
peptide: WLWGMDIDPYK
modifications: not checked
On to B23, for which, in test [7] (setting [19]), the binding affinity ratio (IC50 of standard peptide / IC50 of test peptide) came to 0.003.

B24: HBV POL 98 peptide … (peptide)
peptide: PLTVNEKRR
modifications: not checked
In the case of B24, the binding affinity ratio (IC50 of standard peptide / IC50 of test peptide) in test [11] came to 0.0005; in test [15], 0.0027.

B25: … (HBV NUC 118) (peptide)
peptide: YLVSFGVWIR
modifications: not checked
Take B25: the binding affinity ratio (IC50 of standard peptide / IC50 of test peptide) in [7] is 0.0005.

B26: HBV POL 50 peptide … (peptide)
peptide: IPWTHKVGNF
modifications: not checked
Turning to B26, the binding affinity ratio (ratio to standard peptide) in test [17] was 0.0013.

B27: HBV POL 150 11-mer peptide … (SEQ ID NO: 666) (peptide)
peptide: TLWKAGILYKR
modifications: not checked
On to B27, for which the binding affinity ratio (IC50 of standard peptide / IC50 of test peptide) stood at 0.0082 in test [1] (setting [19]); 0.0095 in test [2] (setting [19]); 0.1 in [3] (setting [19]); 0.11 in test [5] (setting [19]); 0.064 in [4].

B28: HBV POL 723 peptide 16.0181 (…) (peptide)
peptide: LPIHTAELLA
modifications: not checked
Turning to B28, the IC50 in test [18] worked out at 30 nM.

B29: HBV NUC 188 8-mer peptide ATPSPRRR (SEQ ID NO: 648) (peptide)
peptide: RTPSPRRR
modifications: not checked
As for B29, the binding affinity ratio (IC50 of standard peptide / IC50 of test peptide) was -0.0002 in [1], -0.0002 in [2], 0.0033 in test [3] and 0.0014 in [5].

B30: HBV X 20 peptide … (peptide)
peptide: PVGAESRGR
modifications: not checked
With B30, the binding affinity ratio (IC50 of standard peptide / IC50 of test peptide) in test [11] worked out at 0.0005; in test [15] it was 0.0043.

B31: HBV POL 150 … (peptide)
peptide: TLWKAGILYKR
modifications: not checked
Take B31: the binding affinity ratio (IC50 of standard peptide / IC50 of test peptide) in [10] (setting [19]) is 0.0082.

B32: HBV ENV 360 peptide 1039.031 (…) (peptide)
peptide: MMWYWGPSL
modifications: not checked
As to B32, the IC50 in test [13] was 5.6 nM.

B33: HBV POL 398 peptide … (peptide)
peptide: VPNLQSLTNL
modifications: not checked
In the case of B33, the binding affinity ratio (IC50 of standard peptide / IC50 of test peptide) in [16] amounted to 0.0008.

B34: HBV POL 627 peptide … (peptide)
peptide: GLLGFAAPFT
modifications: not checked
As to B34, the binding affinity ratio (IC50 of standard peptide / IC50 of test peptide) in test [8] was 0.0049.

B35: HBV ENV 9 peptide […] (peptide)
peptide: NPLGFFPDHQL
modifications: not checked
Turning to B35, the binding affinity ratio (IC50 of standard peptide / IC50 of test peptide) in test [16] came out at 0.0012; in test [6], 0.0028.

B36: HBV POL 519 9-mer peptide … (SEQ ID NO: 667) (peptide)
peptide: TSAICSVVR
modifications: not checked
Take B36: the binding affinity ratio (IC50 of standard peptide / IC50 of test peptide) is 0.0005 in test [1] (setting [19]), 0.06 in test [3] (setting [19]), 0.02 in test [5] (setting [19]) and 0.082 in test [4].

B37: HBV POL 736 … (peptide)
peptide: TDNSVVLSRK
modifications: not checked
On to B37, for which, in test [10], the binding affinity ratio (IC50 of standard peptide / IC50 of test peptide) came to 0.0006.

What is called IC50 is the midpoint of a concentration-inhibition curve. Higher therefore signals a need for much substance.

The values above are taken from US20070059799A1.
